Publication PMC10855774, “Role of Spexin in White Adipose Tissue Thermogenesis under Basal and Cold-Stimulated Conditions” (International Journal of Molecular Sciences, 2024)

What was measured:
Liver Tg content = assay type: in vivo, mice; conditions: SPX 29 µg/kg/day ten days
Procedure: Liver tissue (50 mg) was homogenized in a 5% solution of 500 µL Triton X-100 in PBS. The homogenate was incubated at 80–100 °C for 5 min and centrifuged at 10,000× g for 10 min. The Tg levels were measured in the supernatants using a commercial kit (Wiener Lab., Rosario, Argentina).

ucp1 = assay: UCP1 immunohistochemistry of EAT and IAT; assay type: in vivo, mice; conditions: SPX groups vs. CTR groups; representative of three experiments
Procedure: Normal adult male C57BL/6 mice (four months of age) were kept in a temperature-controlled environment (20–22 °C and a fixed 12 h light/12 h dark cycle; lights on at 07:00 h) and fed ad libitum with Purina commercial rat/mouse chow (Ganave, Buenos Aires, Argentina, L0723/1). Mice were injected with SPX or PBS (29 µg/kg/day, Tocris, Bristol, UK) for ten days (the SPX and CTR groups, respectively). On the third day of the protocol, each group was subdivided into two other groups: one exposed to cold (4 °C, CTR-C and SPX-C, n = 12 mice for each group) and another one housed at RT (CTR and SPX, n = 15 mice for each group) (Figure 1). Food intake and body weight were measured every day. On the experimental day (day 10), the mice were euthanized under non-fasting conditions (08:00 to 09:00 h), and their trunk blood was collected; plasma samples were then frozen (–80 °C) until the metabolite measurement. Inguinal AT (IAT, subcutaneous depot), epididymal AT (EAT, visceral depot), and brown AT (BAT, subcutaneous depot) were aseptically dissected and weighed. These depots were kept at –80 °C for further procedures. Animals were euthanized according to protocols for animal use, in agreement with the NIH guidelines for the care and use of experimental animals. All experiments were approved by our Institutional Animal Care Committee (Approval code: 6NE-2023). […]

B1: Spexin (peptide, UniProt Q9BT56 27-116, looked up)
Spexin: APQRLLERRNWTPQAMLYLKGAQGRRFISDQSRRKDLSDRPLPERRSPNPQLLTIPEAATILLASLQKSPEDEEKNFDQTRFLEDSLLNW
modifications: Spexin
notes: novel adipokine, a peptide of 14 amino acids of the galanin family; purchased from Tocris
- liver Tg content, SPX-C vs. CTR-C (Liver Tg content; cold (4 °C), C × S p < 0.001, p < 0.001 vs. CTR-C): CTR-C mice had higher Tg levels than CTR (p < 0.01) and SPX-C (p < 0.001) mice
- liver Tg content, SPX-C vs. SPX (Liver Tg content; cold vs. RT): lower Tg levels than SPX mice
- UCP1 expression by immunohistochemistry, EAT and IAT (ucp1): lower than in the CTR groups
